US20250152724A1, “ANTIBODY CONJUGATES SPECIFIC FOR MUCIN-1 AND METHODS OF USE THEREOF” (R.P. Scherer Technologies, LLC, priority 2022, published 2025)
Numbering of substitutions follows the chain as printed.

Tests used:
[1] = analytical size exclusion chromatography (SEC) to determine aggregation; format: physicochemical; details: unconjugated antibodies; mobile phase 300 mM NaCl, 25 mM sodium phosphate pH 6.8
Method: SEC HPLC: To determine aggregation, samples were analyzed using analytical size exclusion chromatography (SEC; Tosoh #08541) with a mobile phase of 300 mM NaCl, 25 mM sodium phosphate pH 6.8.
Methods. Antibodies (15 mg/mL) bearing one aldehyde tag were conjugated to linker-payloads at 1.1 mM, respectively. Reactions proceeded for 72 h at 37° C. in 20 mM sodium citrate, 50 mM NaCl pH 5.5 (20/50 buffer) containing 0.85-2.5% DMA. After conjugation, free drug was removed using a 30 kD MWCO 0.5 mL Amicon spin concentrator. Samples were added to the spin concentrator, centrifuged at 15,000×g for 7 min, then diluted with 450 μL 20 mM sodium citrate, 50 mM NaCl pH 5.5 and centrifuged again. The process was repeated 10 times. To determine the DAR of the final product, ADCs were examined by analytical chromatography using hydrophobic interaction (HIC) (Tosoh #14947) or PLRP-RP (Agilent PL1912-1802 1000A, 8 μm, 50×2.1 mm) columns. HIC analysis used mobile phase A: 1.5 M ammonium sulfate, 25 mM sodium phosphate pH 7.0, and mobile phase B: 25% isopropanol, 18.75 mM sodium phosphate pH 7.0. […] To determine aggregation, samples were analyzed using analytical size exclusion chromatography (SEC; Tosoh #08541) with a mobile phase of 300 mM NaCl, 25 mM sodium phosphate pH 6.8 with 5% isopropanol.

[2] = target: recombinant 20mer MUC1 glycosylated-biotin (Homo sapiens, UniProt P15941); assay: MUC1 ELISA; format: binding; details: FIGS. 2A-2C
recombinant 20mer MUC1 glycosylated-biotin, sequence (P15941 138-157): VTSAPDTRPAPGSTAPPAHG
Method: (§1) MUC1 ELISA: Antigens were coated directly on a Streptavidin (Pierce, 15500) or Maxisorp (VWR, 62409-024) 96-well plate at 100 ng/well in PBS. Coated plates were incubated at 4° C. overnight. The plates were blocked with casein blocking buffer (Thermo Fisher, 37528) and washed with PBS-Tween-20. Antibodies were serially diluted in PBS, added to the coated wells and incubated for 1 h at room temperature with shaking. To test for stickiness, antibodies were also added to uncoated, blocked wells. Peroxidase (HRP)-conjugated anti-Fc secondary (Jackson Immunoresearch, #109-035-098) was used for detection, followed by a […] substrate (Thermo Fisher, 34028) and H2SO4 quench. Absorbance was read at 450 nm on a Molecular Devices plate reader.
(§2) 20mer MUC1 glycosylated-biotin refers to a peptide comprising the sequence […] (SEQ ID NO:26) with Tn (GalNac) antigen or sialyl Tn (Neu5Acα2-6GalNAc) antigen modifications on some of the S/T residues, where biotin in conjugated to the N-terminus. 60mer MUC1 non-glycosylated-biotin refers to a peptide comprising the sequence […] (SEQ ID NO:27), where biotin in conjugated to the N-terminus. Decoy peptide refers to a peptide comprising the sequence […] (SEQ ID NO:28), with Tn (GalNac) antigen or sialyl Tn (Neu5Acα2-6GalNAc) antigen modifications on some of the S/T residues.

decoy peptide = assay: MUC1 ELISA; format: binding; details: FIGS. 2A-2C
decoy peptide, sequence (as listed by the source): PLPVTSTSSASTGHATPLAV
Method: as §1, §2

[3] = target: recombinant 60mer MUC1 non-glycosylated-biotin (Homo sapiens, UniProt P15941); assay: MUC1 ELISA; format: binding; details: FIGS. 2A-2C
recombinant 60mer MUC1 non-glycosylated-biotin, sequence (P15941 138-197): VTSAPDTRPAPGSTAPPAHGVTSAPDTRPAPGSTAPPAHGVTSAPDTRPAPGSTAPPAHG
Method: as §1, §2

B1: MUC1 H02: anti-MUC1 monoclonal antibody; VH SEQ ID NO:1, VL SEQ ID NO:4 (antibody, V domains shown)
VH: EVQLVQSGAEVKKPGATVKISCKVSGYTFTDHTMHWIKQRPGKGLEWMGYFYPRDDSTNYNEKFKGRVTLTADKSTDTAYMELSSLRSEDTAVYYCARGLRYALDYWGQGTLVTVSS
VL: EIVLTQSPATLSLSPGERATLSCRASSSVSSSYLYWYQQKPGQAPRLWIIGTSNLASGVPARFSGSGSGTDYTLTISSLEPEDAAVYYCHQYSWSPPTFGQGTKLEIK
Q: Which “monomeric as determined by SEC” value [1] does the source give for B1 here?
A: Its value is “more than 98%”.

Q: What about the “binding to recombinant 20mer MUC1 glycosylated-biotin as assessed by ELISA” value [2] of the same molecule?
A: Its value is “bind”.

Q: And the “binding to decoy peptide as assessed by ELISA” value (shortened to “binding to decoy peptide”) (decoy peptide)?
A: The value was “not”.

Q: What about the “binding to recombinant 60mer MUC1 non-glycosylated-biotin as assessed by ELISA” value [3] of the same molecule?
A: Its value is “not”.

B2: MUC1 gB06: anti-MUC1 monoclonal antibody; VH SEQ ID NO:1, VL SEQ ID NO:2 (antibody, V domains shown)
VH: B1 VH
VL: B1 VL with I50Y, S93A
Q: For B2, which “binding to recombinant 20mer MUC1 glycosylated-biotin as assessed by ELISA” value [2] is on record?
A: The value was “bind”.

Q: And the “binding to decoy peptide” value (decoy peptide)?
A: Its value is “not”.

Q: What about the “binding to recombinant 60mer MUC1 non-glycosylated-biotin as assessed by ELISA” value [3] of the same molecule?
A: The value was “not”.

B3: MUC1 G12: anti-MUC1 monoclonal antibody; VH SEQ ID NO:1, VL SEQ ID NO:3 (antibody, V domains shown)
VH: B1 VH
VL: B1 VL with S30G, Y33N, I50Y, G51R, T52S, S53T, N54K, S93R
Q: Which “binding to recombinant 20mer MUC1 glycosylated-biotin as assessed by ELISA” value [2] does the source give for B3 here?
A: The value was “bind”.

Q: What about the “binding to decoy peptide” value (decoy peptide) of the same molecule?
A: Its value is “not”.

Q: And the “binding to recombinant 60mer MUC1 non-glycosylated-biotin as assessed by ELISA” value [3]?
A: Its value is “not”.
